Reference: PMC10754148 (Cell, 2023)

B1: F13ExonS-biotin synthetic peptide (peptide)
peptide: MAAAIASSLIRQKRQAREREKSNACKCVSSPSKGKTSCDKNKLNVFSRVKLFGSKKRRRRRPE
modifications: not fully specified (C-terminus)
B2: FLAG-LRR recombinant protein (LRR domain of LRRC37B, amino acids 468-841) (domain or fragment)
chain: AAAEKTRAPHPDQVQTLHRSLTEVTGPPTKLESSQDSLVQSETAPEEQKASTSTNICELCTCGDETLSCVGLSPKQRLRQVPVPEPDTYNGIFTTLNFQGNYISYLDGNVWKAYSWTEKLILSENYLTELPKDSFEGLLYLQYLDLSCNKIRYIERQTFESLPFLQYINLGCNLITKLSLGTFQAWHGMQFLHNLILNRNPLTTVEDPYLFELPALKYLDMGTTHITLTTLKNILTMTVELEKLILPSHMACCLCQFKNSIEAVCKTVKLHCNTACLTNSIHCPEEASVGNPEGAFMKMLQARKQHMSTQLTIESEAPSDSSGINLSGFGGDQLEIQLTEQLRSLIPNEDVRKFMSHVIRTLKMECSETHVQGSCAKLSTG

Experiments:
[1] = molecular target: Nav1.6 (SCN8A), transfected cDNA (UniProt Q9UQD0 1-1980); test: cell-surface binding assay
[2] = molecular target: pdisplay-LRRC37B-LRR_ECTO (amino acids 468-841) (human, UniProt Q96QE4 468-841); test: cell-surface binding assay
[3] = molecular target: pdisplay-LRRC37B_ECTO (amino acids 28-905) (human, UniProt Q96QE4 28-905); test: cell-surface binding assay
[4] = molecular target: T1, 5/6FAM-F13ExonS synthetic peptide (5/6FAM on the N-terminus); test: fluorescence polarisation
T1 peptide: B1 peptide

pdisplay-LRRC37B_ECTO (amino acids 28-905), sequence (Q96QE4 28-905): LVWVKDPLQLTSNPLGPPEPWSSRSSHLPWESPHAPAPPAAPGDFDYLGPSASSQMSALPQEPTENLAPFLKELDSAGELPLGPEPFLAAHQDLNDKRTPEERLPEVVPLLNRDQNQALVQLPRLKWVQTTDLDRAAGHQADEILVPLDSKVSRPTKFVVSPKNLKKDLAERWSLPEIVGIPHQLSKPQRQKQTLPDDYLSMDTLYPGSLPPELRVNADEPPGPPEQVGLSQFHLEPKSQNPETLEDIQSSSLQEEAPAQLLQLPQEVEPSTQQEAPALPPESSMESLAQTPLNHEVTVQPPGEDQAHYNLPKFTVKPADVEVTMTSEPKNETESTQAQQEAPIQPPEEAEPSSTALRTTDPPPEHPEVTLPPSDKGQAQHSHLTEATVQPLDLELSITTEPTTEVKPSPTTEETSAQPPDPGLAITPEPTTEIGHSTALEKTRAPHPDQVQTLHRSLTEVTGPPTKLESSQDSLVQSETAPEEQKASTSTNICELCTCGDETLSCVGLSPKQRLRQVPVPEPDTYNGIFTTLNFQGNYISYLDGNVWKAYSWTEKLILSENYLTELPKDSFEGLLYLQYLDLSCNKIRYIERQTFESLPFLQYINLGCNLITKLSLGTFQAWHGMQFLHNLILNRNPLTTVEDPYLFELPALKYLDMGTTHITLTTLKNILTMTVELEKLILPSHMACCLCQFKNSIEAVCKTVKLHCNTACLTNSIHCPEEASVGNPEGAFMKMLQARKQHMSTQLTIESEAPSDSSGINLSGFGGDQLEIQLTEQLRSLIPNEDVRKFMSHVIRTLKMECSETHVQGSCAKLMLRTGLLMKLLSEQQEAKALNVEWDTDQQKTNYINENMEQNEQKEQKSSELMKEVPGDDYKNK
Nav1.6 (SCN8A), transfected cDNA, sequence (Q9UQD0 whole entry, the tested form may be a part): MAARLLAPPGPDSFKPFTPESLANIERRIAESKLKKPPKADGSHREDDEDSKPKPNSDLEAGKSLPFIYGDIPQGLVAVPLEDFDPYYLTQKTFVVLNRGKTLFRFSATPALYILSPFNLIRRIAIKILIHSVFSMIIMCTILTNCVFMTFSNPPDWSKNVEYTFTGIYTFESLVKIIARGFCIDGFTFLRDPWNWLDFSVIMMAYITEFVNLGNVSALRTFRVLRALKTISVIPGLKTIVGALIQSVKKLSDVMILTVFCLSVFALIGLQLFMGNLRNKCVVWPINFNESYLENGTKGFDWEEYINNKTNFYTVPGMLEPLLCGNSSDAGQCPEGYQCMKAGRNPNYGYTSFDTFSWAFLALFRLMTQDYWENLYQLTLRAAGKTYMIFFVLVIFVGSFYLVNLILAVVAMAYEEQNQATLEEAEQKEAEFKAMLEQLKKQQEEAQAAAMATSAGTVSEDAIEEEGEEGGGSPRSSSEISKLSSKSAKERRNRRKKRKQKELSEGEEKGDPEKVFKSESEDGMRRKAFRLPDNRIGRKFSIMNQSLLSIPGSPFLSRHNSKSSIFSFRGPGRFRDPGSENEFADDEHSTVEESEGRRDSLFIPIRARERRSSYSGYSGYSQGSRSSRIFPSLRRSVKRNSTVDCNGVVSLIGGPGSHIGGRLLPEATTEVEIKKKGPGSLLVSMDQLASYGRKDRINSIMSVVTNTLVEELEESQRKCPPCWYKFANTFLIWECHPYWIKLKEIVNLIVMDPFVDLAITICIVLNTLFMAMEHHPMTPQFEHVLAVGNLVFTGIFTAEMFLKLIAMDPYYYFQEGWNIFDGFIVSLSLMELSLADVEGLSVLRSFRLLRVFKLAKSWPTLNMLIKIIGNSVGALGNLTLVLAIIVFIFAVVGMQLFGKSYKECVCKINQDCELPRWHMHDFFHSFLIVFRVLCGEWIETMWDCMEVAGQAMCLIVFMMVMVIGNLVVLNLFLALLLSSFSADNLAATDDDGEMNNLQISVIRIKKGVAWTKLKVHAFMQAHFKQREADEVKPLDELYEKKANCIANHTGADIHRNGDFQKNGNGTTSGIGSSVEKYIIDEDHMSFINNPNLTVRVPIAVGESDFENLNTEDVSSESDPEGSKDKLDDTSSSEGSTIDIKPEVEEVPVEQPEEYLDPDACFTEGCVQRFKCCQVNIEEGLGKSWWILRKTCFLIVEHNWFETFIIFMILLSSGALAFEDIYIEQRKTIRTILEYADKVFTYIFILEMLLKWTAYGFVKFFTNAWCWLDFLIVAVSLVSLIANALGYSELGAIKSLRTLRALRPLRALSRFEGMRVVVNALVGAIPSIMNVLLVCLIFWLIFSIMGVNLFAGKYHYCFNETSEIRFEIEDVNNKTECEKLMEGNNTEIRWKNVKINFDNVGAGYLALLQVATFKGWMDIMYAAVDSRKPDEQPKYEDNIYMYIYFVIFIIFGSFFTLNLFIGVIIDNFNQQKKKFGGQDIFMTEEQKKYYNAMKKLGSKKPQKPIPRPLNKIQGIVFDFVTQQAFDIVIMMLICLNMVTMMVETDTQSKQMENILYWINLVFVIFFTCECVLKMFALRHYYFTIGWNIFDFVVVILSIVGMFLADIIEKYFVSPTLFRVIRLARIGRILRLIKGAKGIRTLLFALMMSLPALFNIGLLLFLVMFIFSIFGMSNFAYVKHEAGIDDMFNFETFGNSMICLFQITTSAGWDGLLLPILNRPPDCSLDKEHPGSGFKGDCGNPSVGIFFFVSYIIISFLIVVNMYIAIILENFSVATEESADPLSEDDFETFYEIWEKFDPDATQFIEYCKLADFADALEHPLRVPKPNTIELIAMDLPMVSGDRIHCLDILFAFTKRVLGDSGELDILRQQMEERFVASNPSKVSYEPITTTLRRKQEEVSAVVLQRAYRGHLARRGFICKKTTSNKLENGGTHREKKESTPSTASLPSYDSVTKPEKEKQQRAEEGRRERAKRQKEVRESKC

Binder | Kd [1] [nM] | Kd [2] [nM] | Kd [3] [nM] | Kd [4] [nM]
B1 | 49.83 ± 0.261 | 1.18 ± 0.28 | 1.1 ± 0.261 | –
B2 | – | – | – | 530
